According to the supplement of paper PMC9732359:
± gives the uncertainty stated by the source.

Assay: protein stability index of a GFP-peptide fusion (yeast GPS) (PSI 1-4); higher = more stable; sorted into four equal gates, so the index is relative within each strain
In short: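 Yeast carrying a pooled library were grown to mid-log phase in leucine-free medium. Each library plasmid expresses Cherry and has a tiled 17-residue yeast protein peptide fused downstream of GFP. Cells were sorted into four equal gates by GFP/Cherry ratio, and plasmids from each gate were PCR-amplified, Illumina-sequenced and assigned to strains by barcode. Summing, across gates, the read frequency times the gate number gave each peptide's protein stability index.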

Sequence | protein stability index (doa10∆) | protein stability index (pdr5∆) | protein stability index (san1∆) | protein stability index (ubr1∆)
NSYWLIILLGVLEDCRH [ITC1] | 1.42 ± 0.061 | 1.53 ± 0.048 | 2.44 ± 0.083 | 2.36 ± 0.057
PQIVKLFDISREALSGR [ECM29] | 3.44 ± 0.15 | 3.26 ± 0.1 | 3.59 ± 0.081 | 2.95 ± 0.054
KDSLWQSEHLEAVVDQD [FAS1] | 3.43 ± 0.24 | 3.36 ± 0.14 | 3.46 ± 0.088 | 3.41 ± 0.09
YPEYDQITKFPKYRDNL [SSN3] | 2.21 ± 0.18 | 2.4 ± 0.13 | 2.24 ± 0.12 | 2.25 ± 0.047
QGSVRRLTVSARDAPTK [QCR2] | 2.93 ± 0.12 | 3.16 ± 0.076 | 2.92 ± 0.086 | 3.14 ± 0.061
HSFIKMLQMKGKLLRNY [SIR2] | 2.19 ± 0.09 | 2.4 ± 0.12 | 2.27 ± 0.16 | 2.15 ± 0.067
FQQIQYENKQLYFPDDY [POP1] | 2.92 ± 0.11 | 2.5 ± 0.083 | 2.78 ± 0.12 | 2.73 ± 0.086
FVVKLDTVDRLIIKYQK [GAL11] | 2.25 ± 0.042 | 2.3 ± 0.048 | 2.54 ± 0.054 | 2 ± 0.039
KRMLLSLSEFARRRQPT [SNF2] | 2.26 ± 0.15 | 2.63 ± 0.13 | 1.77 ± 0.25 | 2.58 ± 0.092
SADAPNPNNVNVQTQYR [RET1] | 2.92 ± 0.09 | 2.84 ± 0.045 | 2.77 ± 0.07 | 2.79 ± 0.05
PLLEAKKLVWPLHLIFA [SSN2] | 1.61 ± 0.083 | 1.29 ± 0.059 | 1.24 ± 0.11 | 1.19 ± 0.06
PKIETNVYVGMTDMQIQ [ISW2] | 2.96 ± 0.091 | 2.99 ± 0.091 | 3.04 ± 0.069 | 3.29 ± 0.11
NLLKNFISSNDAFNMLS [SNF6] | 1.61 ± 0.099 | 2 ± 0.061 | 1.97 ± 0.13 | 1.98 ± 0.043
TDLESLSSGESNEIKVT [SIR4] | 2.99 ± 0.13 | 2.93 ± 0.11 | 2.69 ± 0.1 | 2.46 ± 0.071
DAHKAEQEDIIEKTESV [SWI3] | 3.19 ± 0.086 | 3.32 ± 0.1 | 3.38 ± 0.046 | 3.21 ± 0.081
SLLTLVGSVTYQVDEDV [YJL039C/NUP192] | 1.8 ± 0.1 | 1.67 ± 0.13 | 2.66 ± 0.098 | 1.23 ± 0.14
RGFNNQIMQLKKICNHP [SNF2] | 3.13 ± 0.066 | 3.15 ± 0.067 | 3.07 ± 0.049 | 3.2 ± 0.06
VHPGANYLLKRNEDARR [RPO31] | 3.21 ± 0.067 | 3.14 ± 0.077 | 2.93 ± 0.077 | 3.35 ± 0.038
ITNDWEQPCVDIISGKI [YJR042W/NUP85] | 3.36 ± 0.078 | 3.44 ± 0.066 | 3.18 ± 0.053 | 3.02 ± 0.058
ITLFVLVSVVEAFIASG [FAS2] | 1.53 ± 0.048 | 1.41 ± 0.043 | 2.06 ± 0.061 | 1.8 ± 0.051
DSYIALYEKDIVPSMTH [RET1] | 2.5 ± 0.066 | 2.51 ± 0.07 | 2.46 ± 0.075 | 2.65 ± 0.067
AALANANNNINSASSAP [SWI1] | 2.55 ± 0.088 | 1.91 ± 0.068 | 2.88 ± 0.13 | 2.55 ± 0.12
INIQKYNNNTIRKLLEK [CSI1] | 2.85 ± 0.25 | 2.51 ± 0.17 |  | 2.54 ± 0.11
PMDEETKLYFDVNEKIR [RPC25] | 3.01 ± 0.098 | 3.03 ± 0.086 | 3.01 ± 0.068 | 3.1 ± 0.1
KERNQKFQLQNQLEDFI [YIL149C/MLP2] | 3.05 ± 0.075 | 3.25 ± 0.066 | 2.78 ± 0.05 | 3 ± 0.053

Sequence | protein stability index (doa10∆) | protein stability index (pdr5∆) | protein stability index (san1∆) | protein stability index (ubr1∆)
KICRGRMNTIITHPGKM [SIR4] | 3.36 ± 0.28 |  | 3.23 ± 0.16 | 
NATLTPNDSNDEKVTIL [SWI1] | 3.02 ± 0.059 | 3.22 ± 0.061 | 3.1 ± 0.066 | 3.11 ± 0.04
GVMSLLQKSSKSMITSE [YAR002W/NUP60] | 2.46 ± 0.06 | 2.61 ± 0.062 | 2.19 ± 0.076 | 2.95 ± 0.063
QSISNENDVKPISIEAP [SWI3] | 2.55 ± 0.042 | 2.34 ± 0.044 | 2.42 ± 0.052 | 2.32 ± 0.037
IGQLMAFDKHMNLVLNE [SMB1] | 2.04 ± 0.15 | 2.39 ± 0.2 | 2.72 ± 0.16 | 2.57 ± 0.051
IDDLIHEIITVGPHFKQ [RPL7A] | 1.87 ± 0.1 | 2.32 ± 0.11 |  | 1.56 ± 0.064
PQKNLLLKGPASTVAKT [YOR098C/NUP1] | 2.73 ± 0.057 | 2.94 ± 0.041 | 2.68 ± 0.054 | 2.83 ± 0.055
DPHSASLINSHLKILAS [RPC82] | 2.15 ± 0.22 | 1.38 ± 0.12 | 1.38 ± 0.19 | 1.23 ± 0.059
GFALNSDIVFIHQNAGR [BRR2] | 3.03 ± 0.12 | 2.09 ± 0.09 | 1.78 ± 0.2 | 2.02 ± 0.057
LKGEIEDYPMSSEIKIY [SIR4] | 1.33 ± 0.15 |  | 3.25 ± 0.18 | 1.64 ± 0.2
YWFPLAHFLSLSFTPTT [RPN2] | 1.65 ± 0.036 | 1.34 ± 0.033 | 1.19 ± 0.076 | 1.19 ± 0.028
RKVVKPSSLNSDKIPYV [SRB4] | 2.74 ± 0.23 | 3.23 ± 0.13 | 3.06 ± 0.18 | 3.23 ± 0.12
HELREKERISVAAASKI [PRE2] | 2.67 ± 0.061 | 2.77 ± 0.049 | 2.79 ± 0.062 | 2.22 ± 0.03
AEDQILANFVAKGFYHT [SRB8] | 2.91 ± 0.092 | 3.25 ± 0.055 | 3.25 ± 0.12 | 3.05 ± 0.065
SCLTFFQALDSEETQFK [ITC1] | 2.73 ± 0.1 | 3.49 ± 0.13 | 2.7 ± 0.11 | 3.17 ± 0.15
KLYVDAVHSIIALSRRF [YDL116W/NUP84] | 2.01 ± 0.077 | 1.81 ± 0.065 | 1.82 ± 0.12 | 1.93 ± 0.064
TVLQKNSLLLDSTPEEV [YML103C/NUP188] | 2 ± 0.052 | 2.28 ± 0.063 | 1.38 ± 0.079 | 1.42 ± 0.049
LQISDIPAAGNNRSVSM [SRB5] | 2.77 ± 0.075 | 2.35 ± 0.07 | 2.4 ± 0.083 | 2.8 ± 0.06
LATLHYQKKQYKDSLAL [RPN6] | 1.91 ± 0.28 | 1.47 ± 0.17 | 2.62 ± 0.19 | 2.14 ± 0.23
DAMIAQRSKKIQPTAKV [DIS3] | 1.83 ± 0.082 | 1.99 ± 0.084 | 1.59 ± 0.067 | 1.69 ± 0.068
RKHTRGDVSSGLFEKST [BRN1] | 2.81 ± 0.16 | 3.27 ± 0.1 | 2.5 ± 0.14 | 
IHIDALELAGMDALYEK [SIR3] | 2.97 ± 0.1 | 3.04 ± 0.098 | 2.71 ± 0.07 | 2.93 ± 0.079
MIFWNDICQIDTNAPVA [SRB8] | 2.4 ± 0.063 | 1.8 ± 0.052 | 2.12 ± 0.093 | 2.02 ± 0.051
MIDAVFEQDSHLRYQPD [SNF6] | 3.09 ± 0.076 | 3.19 ± 0.065 | 3.15 ± 0.041 | 3.19 ± 0.054
ASGKEVEKVATAVLSTT [RPN2] | 2.76 ± 0.14 | 3.47 ± 0.17 |  | 
